Experimental data as given in patent EP0733063B1.
Where “and” joins values, the source holds several entries; their conditions need not be identical. Equal values may be shown once.

Columns and labels:
[1] = target: purified monoclonal anti-hCG antibody (anti-hCG-A antibody, gift from Organon Technika); assay: fluorescence anisotropy displacement, non-linear curve fitting by Equation (6), 6 C
[2] = target: purified monoclonal anti-hCG antibody (anti-hCG-A antibody, gift from Organon Technika); assay: ratio of affinity constants of hCG and of the oligopeptide for the antibody

Substance: human chorionic gonadotrophin (hCG), highly purified, intact (from UniProt P01215 25-116; P0DN86 21-165) (ligand)
- Ka [1]: 9.4e+09 M⁻¹
- fold higher binding affinity than the oligopeptide [2]: 300 fold and 500 fold
